We go through six molecules from PMC7154664 (Angewandte Chemie (International Ed. in English), 2020).

In one data set the target is T1, YciA (Escherichia coli, UniProt P0A8Z0).
T1 sequence (P0A8Z0 1-132): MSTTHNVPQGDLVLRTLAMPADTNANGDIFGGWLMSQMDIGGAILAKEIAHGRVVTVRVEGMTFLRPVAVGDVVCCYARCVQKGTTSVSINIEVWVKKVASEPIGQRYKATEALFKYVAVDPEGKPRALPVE
The data set is described as follows: thioesterase activity assay. Type of data set: biochemical. As to conditions: racemic mandelyl-CoA 0.5 mM, YciA 2 μM.

For the next data set, the target named is HACLHs (Homo sapiens, UniProt Q9UJ83). The data set is described as follows: carboligation, LC-MS product analysis after […] h. Format: biochemical. As to conditions: formyl-CoA 1 mM as C1 donor, aldehyde 10 mM, enzyme 5 μM.
Substrate in the data set “purified protein”: CC(C)(COP(=O)(O)OP(=O)(O)OC[C@H]1O[C@@H](n2cnc3c(N)ncnc32)[C@H](O)[C@@H]1OP(=O)(O)O)[C@@H](O)C(=O)NCCC(=O)NCCSC(=O)C(=O)O
The data set is described as follows: purified protein. Conditions: decarboxylation to formyl-CoA; ThDP-dependent.

HACLHs, sequence (Q9UJ83 whole entry): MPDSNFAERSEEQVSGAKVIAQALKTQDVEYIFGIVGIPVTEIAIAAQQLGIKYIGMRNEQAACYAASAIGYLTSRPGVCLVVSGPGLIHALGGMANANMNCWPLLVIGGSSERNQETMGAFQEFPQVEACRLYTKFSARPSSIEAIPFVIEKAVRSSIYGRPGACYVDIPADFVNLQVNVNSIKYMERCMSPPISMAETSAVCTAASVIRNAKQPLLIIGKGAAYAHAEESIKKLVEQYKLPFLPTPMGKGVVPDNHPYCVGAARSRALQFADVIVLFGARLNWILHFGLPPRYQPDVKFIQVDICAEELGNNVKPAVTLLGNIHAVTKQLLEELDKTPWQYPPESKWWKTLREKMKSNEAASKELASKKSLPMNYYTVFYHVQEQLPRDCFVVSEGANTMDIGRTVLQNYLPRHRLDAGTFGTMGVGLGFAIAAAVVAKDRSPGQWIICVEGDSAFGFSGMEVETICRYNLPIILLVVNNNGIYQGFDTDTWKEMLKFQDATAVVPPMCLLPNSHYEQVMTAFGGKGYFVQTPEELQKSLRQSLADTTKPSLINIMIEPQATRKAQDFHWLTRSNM

Take `CC(C)(COP(=O)(O)OP(=O)(O)OC[C@H]1O[C@@H](n2cnc3c(N)ncnc32)[C@H](O)[C@@H]1OP(=O)(O)O)[C@@H](O)C(=O)NCCC(=O)NCCSC(=O)C(O)c1ccccc1` (stereo partly drawn) [mandelyl‐CoA]: the thioesterase activity assay entry at YciA is given as “YciA showed relatively high mandelyl‐CoA thioesterase activity”.
As to `CC(C)(COP(=O)(O)OP(=O)(O)OC[C@H]1O[C@@H](n2cnc3c(N)ncnc32)[C@H](O)[C@@H]1OP(=O)(O)O)[C@@H](O)C(=O)NCCC(=O)NCCSC=O` [formyl‐CoA], on HACLHs, the “carboligation, LC-MS product analysis after 1 h” value was “HACLHs and OXCMe are able to perform nucleophilic C1‐extension reactions of different aldehydes with formyl‐CoA”.

B1: OXCMe (Methylorubrum extorquens AM1) (protein)
chain: MTVQAQNIDAITAGAMPHEEPELTDGFHLVIDALKLNGIETIYNVPGIPITDLGRLAQAEGLRVISFRHEQNAGNAAAIAGFLTKKPGICLTVSAPGFLNGLTALANATTNCFPMILISGSSEREIVDLQQGDYEEMDQLAIAKPLCKAAFRVLHAADIGIGVARAIRAAVSGRPGGVYLDLPAKLFSQVIDADLGARSLVKVIDAAPAQLPAPAAIARALDVLKSAERPLIILGKGAAYAQADEAVRALVEESGIPYVPMSMAKGLLPDTHPLSAGAARSTALKDSDVVLLVGARLNWLLSHGKGKTWGEPGSKRFIQIDIEPREMDSNVEIVAPVVGDIGSCVEALLDGIRKDWKGAPSNWLETLRGKREANIAKMAPKLMKNSSPMCFHSALGALRTVIKERPDAILVNEGANTLDLARGIIDMYQPRKRLDVGTWGVMGIGMGFAVAAAVETGKPVLAVEGDSAFGFSGMEVETICRYELPVCIVIFNNNGIYRGTDTDPTGRDPGTTVFVKNSRYDKMMEAFGGVGVNVTTPDELKRAVDEAMNSGKPTLINAEIDPAAGSESGNIGSLNPQSTLKKK
For B1, in “purified protein”, the Km was found to be 105 ± 11 µM, the kcat worked out at 98 ± 3 s⁻¹ and the kcat/Km was 930000 M⁻¹ s⁻¹.

B2: OXCMe (Methylorubrum extorquens AM1; Y497A) (protein)
chain: MTVQAQNIDAITAGAMPHEEPELTDGFHLVIDALKLNGIETIYNVPGIPITDLGRLAQAEGLRVISFRHEQNAGNAAAIAGFLTKKPGICLTVSAPGFLNGLTALANATTNCFPMILISGSSEREIVDLQQGDYEEMDQLAIAKPLCKAAFRVLHAADIGIGVARAIRAAVSGRPGGVYLDLPAKLFSQVIDADLGARSLVKVIDAAPAQLPAPAAIARALDVLKSAERPLIILGKGAAYAQADEAVRALVEESGIPYVPMSMAKGLLPDTHPLSAGAARSTALKDSDVVLLVGARLNWLLSHGKGKTWGEPGSKRFIQIDIEPREMDSNVEIVAPVVGDIGSCVEALLDGIRKDWKGAPSNWLETLRGKREANIAKMAPKLMKNSSPMCFHSALGALRTVIKERPDAILVNEGANTLDLARGIIDMYQPRKRLDVGTWGVMGIGMGFAVAAAVETGKPVLAVEGDSAFGFSGMEVETICRYELPVCIVIFNNNGIARGTDTDPTGRDPGTTVFVKNSRYDKMMEAFGGVGVNVTTPDELKRAVDEAMNSGKPTLINAEIDPAAGSESGNIGSLNPQSTLKKK
For B2, in the data set “purified protein”, the Michaelis-Menten constant (Km) stood at 180 ± 17 µM, the kcat turned out to be 1.32 ± 0.04 s⁻¹ and the kcat/Km was determined as 7300 M⁻¹ s⁻¹.

B3: OXCMe (Methylorubrum extorquens AM1; S568A/Y497A) (protein)
chain: MTVQAQNIDAITAGAMPHEEPELTDGFHLVIDALKLNGIETIYNVPGIPITDLGRLAQAEGLRVISFRHEQNAGNAAAIAGFLTKKPGICLTVSAPGFLNGLTALANATTNCFPMILISGSSEREIVDLQQGDYEEMDQLAIAKPLCKAAFRVLHAADIGIGVARAIRAAVSGRPGGVYLDLPAKLFSQVIDADLGARSLVKVIDAAPAQLPAPAAIARALDVLKSAERPLIILGKGAAYAQADEAVRALVEESGIPYVPMSMAKGLLPDTHPLSAGAARSTALKDSDVVLLVGARLNWLLSHGKGKTWGEPGSKRFIQIDIEPREMDSNVEIVAPVVGDIGSCVEALLDGIRKDWKGAPSNWLETLRGKREANIAKMAPKLMKNSSPMCFHSALGALRTVIKERPDAILVNEGANTLDLARGIIDMYQPRKRLDVGTWGVMGIGMGFAVAAAVETGKPVLAVEGDSAFGFSGMEVETICRYELPVCIVIFNNNGIARGTDTDPTGRDPGTTVFVKNSRYDKMMEAFGGVGVNVTTPDELKRAVDEAMNSGKPTLINAEIDPAAGSEAGNIGSLNPQSTLKKK
On to B3, for which, in the data set “purified protein”, the Km was 103 ± 15 µM, the kcat was 0.32 ± 0.01 s⁻¹ and the catalytic efficiency (kcat/Km) turned out to be 3100 M⁻¹ s⁻¹.

B4: OXCMe (Methylorubrum extorquens AM1; S568A) (protein)
chain: MTVQAQNIDAITAGAMPHEEPELTDGFHLVIDALKLNGIETIYNVPGIPITDLGRLAQAEGLRVISFRHEQNAGNAAAIAGFLTKKPGICLTVSAPGFLNGLTALANATTNCFPMILISGSSEREIVDLQQGDYEEMDQLAIAKPLCKAAFRVLHAADIGIGVARAIRAAVSGRPGGVYLDLPAKLFSQVIDADLGARSLVKVIDAAPAQLPAPAAIARALDVLKSAERPLIILGKGAAYAQADEAVRALVEESGIPYVPMSMAKGLLPDTHPLSAGAARSTALKDSDVVLLVGARLNWLLSHGKGKTWGEPGSKRFIQIDIEPREMDSNVEIVAPVVGDIGSCVEALLDGIRKDWKGAPSNWLETLRGKREANIAKMAPKLMKNSSPMCFHSALGALRTVIKERPDAILVNEGANTLDLARGIIDMYQPRKRLDVGTWGVMGIGMGFAVAAAVETGKPVLAVEGDSAFGFSGMEVETICRYELPVCIVIFNNNGIYRGTDTDPTGRDPGTTVFVKNSRYDKMMEAFGGVGVNVTTPDELKRAVDEAMNSGKPTLINAEIDPAAGSEAGNIGSLNPQSTLKKK
B4: the Km in “purified protein” turned out to be 23 ± 2 µM.
